Measured values reported in the supplement of paper PMC9233669.
Fewer inactive variants are shown than the library holds.

Assays:
biotinyl-Phe-oxazolone = experiment: self-aminoacylation, catalytic enhancement (BFO) (fold over background); higher = more active; k-Seq, kA / k0A0; sequences stand for … in GGGAAUGGAUCCACAUCUACGAAUUC…UUCACUGCAGACUUGACGAAGCUG
How it was run: (§1)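 Mutagenized RNA pools with a 21-nt variable region (0.43 μM) were reacted with each biotinyl-aminoacyl-oxazolone at 2–1250 μM for 90 minutes at room temperature, in 50 μL HEPES/NaCl/KCl/MgCl2/CaCl2 buffer containing 5% acetonitrile at pH 6.9–7.0. RNA captured on streptavidin was quantified by triplicate qPCR and by Illumina sequencing. The fraction reacted for each sequence was fit to a pseudo-first-order model with bootstrapping, and catalytic enhancement is the median kA divided by the uncatalyzed rate, taken as the low-activity peak of a bimodal Gaussian fit.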

biotinyl-Ile-oxazolone = experiment: self-aminoacylation, catalytic enhancement (BIO) (fold over background); higher = more active; k-Seq, kA / k0A0; sequences stand for … in GGGAAUGGAUCCACAUCUACGAAUUC…UUCACUGCAGACUUGACGAAGCUG
How it was run: as §1

biotinyl-Met-oxazolone = experiment: self-aminoacylation, catalytic enhancement (BMO) (fold over background); higher = more active; k-Seq, kA / k0A0; sequences stand for … in GGGAAUGGAUCCACAUCUACGAAUUC…UUCACUGCAGACUUGACGAAGCUG
How it was run: as §1

biotinyl-Val-oxazolone = experiment: self-aminoacylation, catalytic enhancement (BVO) (fold over background); higher = more active; k-Seq, kA / k0A0; sequences stand for … in GGGAAUGGAUCCACAUCUACGAAUUC…UUCACUGCAGACUUGACGAAGCUG
How it was run: as §1

biotinyl-Leu-oxazolone = experiment: self-aminoacylation, catalytic enhancement (BLO) (fold over background); higher = more active; k-Seq, kA / k0A0; sequences stand for … in GGGAAUGGAUCCACAUCUACGAAUUC…UUCACUGCAGACUUGACGAAGCUG
How it was run: as §1

biotinyl-Trp-oxazolone = experiment: self-aminoacylation, catalytic enhancement (BWO) (fold over background); higher = more active; k-Seq, kA / k0A0; sequences stand for … in GGGAAUGGAUCCACAUCUACGAAUUC…UUCACUGCAGACUUGACGAAGCUG
How it was run: as §1

Row | Sequence | self-aminoacylation (biotinyl-Phe-oxazolone) | self-aminoacylation (biotinyl-Ile-oxazolone) | self-aminoacylation (biotinyl-Met-oxazolone) | self-aminoacylation (biotinyl-Val-oxazolone) | self-aminoacylation (biotinyl-Leu-oxazolone) | self-aminoacylation (biotinyl-Trp-oxazolone)
1 | CCACACUUCCAUCAAUCGGUC [Fam1B.1 aminoacylation ribozyme variant] | 0.715 | 0.683 | 0.561 | 0.732 | 0.593 | 0.586
2 | CCACACUUCCUGCAAUCGGUC [Fam1B.1 aminoacylation ribozyme variant] | 0.777 | 1.04 | 0.859 | 1.19 | 1.11 | 0.961
3 | CCACACUUCGACCAAUCGGUC [Fam1B.1 aminoacylation ribozyme variant] | 1.42 | 1.31 | 1.74 | 1.85 | 1.22 | 1.41
4 | CCACACUUCGAGCAAUCCGUC [Fam1B.1 aminoacylation ribozyme variant] | 0.498 | 1.28 | 1.03 | 1.49 | 1.08 | 1.4
5 | CCACACUUCGAGCCAUCGGUC [Fam1B.1 aminoacylation ribozyme variant] | 1.27 | 1.84 | 1.27 | 1.87 | 1.58 | 1.02
6 | CCACACUUCGAGUAAUCGGUC [Fam1B.1 aminoacylation ribozyme variant] | 0.641 | 0.822 | 0.958 | 0.893 | 0.78 | 0.789
7 | CCACACUUCUAACAAUCGGUC [Fam1B.1 aminoacylation ribozyme variant] | 0.614 | 0.797 | 0.619 | 0.798 | 0.69 | 0.618
8 | CCACACUUCUAGCAAUAGGUC [Fam1B.1 aminoacylation ribozyme variant] | 0.978 | 0.629 | 0.554 | 0.666 | 0.53 | 0.429
9 | CCACACUUCUAGCAAUCGGAC [Fam1B.1 aminoacylation ribozyme variant] | 0.585 | 0.941 | 0.665 | 0.612 | 0.979 | 0.61
10 | CCACACUUCUAGCAAUCGGGC [Fam1B.1 aminoacylation ribozyme variant] | 4.87 | 2.09 | 1.08 | 1.64 | 1.21 | 1.7
11 | CCACACUUCUAGCAAUCGGUC [Fam1B.1 aminoacylation ribozyme variant] | 0.957 | 0.771 | 0.611 | 0.852 | 0.624 | 0.616
12 | CCACACUUCUAGCAAUUGGUC [Fam1B.1 aminoacylation ribozyme variant] | 0.539 | 0.611 | 0.638 | 0.687 | 0.636 | 0.401
13 | CCACACUUCUAGCACUCGGUC [Fam1B.1 aminoacylation ribozyme variant] | 0.649 | 0.819 | 0.748 | 0.783 | 0.702 | 0.913
14 | CCACACUUGAACCAAUCGGUC [Fam1B.1 aminoacylation ribozyme variant] | 0.969 | 0.804 | 0.673 | 0.819 | 0.635 | 0.742
15 | CCACACUUGAAGCUAUCGGUC [Fam1B.1 aminoacylation ribozyme variant] | 0.482 | 1.07 | 0.885 | 1.02 | 0.775 | 0.759
16 | CCACACUUUAAACAAUCGGUC [Fam1B.1 aminoacylation ribozyme variant] | 2.02 | 0.718 | 0.633 | 0.825 | 0.733 | 1.3
17 | CCACACUUUAAGCAAUAGGUC [Fam1B.1 aminoacylation ribozyme variant] | 1.07 | 0.619 | 0.592 | 0.683 | 0.578 | 0.444
18 | CCACACUUUAAGCAAUCGGUA [Fam1B.1 aminoacylation ribozyme variant] | 0.889 | 0.788 | 0.722 | 0.95 | 0.63 | 0.553
19 | CCACACUUUAAGCGAUCGGUC [Fam1B.1 aminoacylation ribozyme variant] | 0.891 | 1.13 | 1.16 | 1.11 | 1.25 | 1.03
20 | CCACAGAUCAAGCAAUCGGUC [Fam1B.1 aminoacylation ribozyme variant] | 2.39 | 1.01 | 0.576 | 0.824 | 0.81 | 1.61
21 | CCACAGUACAAGCAAUCGGUC [Fam1B.1 aminoacylation ribozyme variant] | 1.77 | 1.17 | 1.27 | 1.24 | 1.03 | 0.861
22 | CCACAGUUCAAGCAAUCGGUA [Fam1B.1 aminoacylation ribozyme variant] | 0.787 | 1.08 | 1.28 | 1.13 | 1.01 | 0.707
23 | CCACAGUUCAAGCAGUCGGUC [Fam1B.1 aminoacylation ribozyme variant] | 0.63 | 0.937 | 1.01 | 1.2 | 1.04 | 0.757
24 | CCACAGUUCACGCAAUCGGUC [Fam1B.1 aminoacylation ribozyme variant] | 3.2 | 1.45 | 1.51 | 1.86 | 1.73 | 2.1
25 | CCACAGUUCAUGCAAUCGGUC [Fam1B.1 aminoacylation ribozyme variant] | 0.779 | 1.1 | 0.972 | 1.12 | 1.16 | 0.884
26 | CCACAUUUCAAGCAACCGGUC [Fam1B.1 aminoacylation ribozyme variant] | 1.11 | 1.53 | 1.09 | 1.64 | 1.11 | 1.34

Row | Sequence | self-aminoacylation (biotinyl-Phe-oxazolone) | self-aminoacylation (biotinyl-Ile-oxazolone) | self-aminoacylation (biotinyl-Met-oxazolone) | self-aminoacylation (biotinyl-Val-oxazolone) | self-aminoacylation (biotinyl-Leu-oxazolone) | self-aminoacylation (biotinyl-Trp-oxazolone)
27 | CCACAUUUCAAGCAAUCGGGC [Fam1B.1 aminoacylation ribozyme variant] | 1.7 | 3.08 | 3.55 | 2.7 | 2.78 | 2.91
28 | CCACAUUUCAAGCAAUCGGUU [Fam1B.1 aminoacylation ribozyme variant] | 1.25 | 1.59 | 1.62 | 1.71 | 1.56 | 1.2
29 | CCACAUUUCUAGCAAUCGGUC [Fam1B.1 aminoacylation ribozyme variant] | 1.49 | 1.83 | 1.35 | 1.76 | 1.4 | 1.22
30 | CCACAUUUGAAGCAAUCGGUC [Fam1B.1 aminoacylation ribozyme variant] | 1.09 | 1.28 | 1.04 | 1.31 | 1.17 | 0.886
31 | CCACCCGUCAAGCAAUCGGUC [Fam1B.1 aminoacylation ribozyme variant] | 1.12 | 1.24 | 1.2 | 1.44 | 1.12 | 1.08
32 | CCACCCUACAAGCAAUCGGUC [Fam1B.1 aminoacylation ribozyme variant] | 0.931 | 1.36 | 1.3 | 1.17 | 1.19 | 1.16
33 | CCACCCUUCAAACAAUCGGUC [Fam1B.1 aminoacylation ribozyme variant] | 81.3 | 1.39 | 1.43 | 1.86 | 2.18 | 38.9
34 | CCACCCUUCAAGCAAUAGGUC [Fam1B.1 aminoacylation ribozyme variant] | 0.807 | 0.645 | 0.575 | 0.711 | 0.529 | 0.452
35 | CCACCCUUCAAGCAAUCAGUC [Fam1B.1 aminoacylation ribozyme variant] | 5.72 | 0.736 | 0.672 | 0.828 | 0.775 | 1.94
36 | CCACCCUUCAAGCAAUCGGAC [Fam1B.1 aminoacylation ribozyme variant] | 0.866 | 1.04 | 0.991 | 1.31 | 0.712 | 0.664
37 | CCACCCUUCAAGCAAUCGUUC [Fam1B.1 aminoacylation ribozyme variant] | 0.85 | 0.888 | 0.584 | 0.89 | 0.611 | 0.742
38 | CCACCCUUCAAGCACUCGGUC [Fam1B.1 aminoacylation ribozyme variant] | 0.826 | 1.54 | 1.14 | 1.68 | 1.15 | 1.46
39 | CCACCCUUCAAGGAAUCGGUC [Fam1B.1 aminoacylation ribozyme variant] | 3.31 | 1.36 | 1.34 | 1.32 | 1.27 | 4
40 | CCACCCUUCAGGCAAUCGGUC [Fam1B.1 aminoacylation ribozyme variant] | 1.82 | 1.71 | 1.57 | 2.12 | 1.55 | 1.71
41 | CCACCCUUUAAGCAAUCGGUC [Fam1B.1 aminoacylation ribozyme variant] | 1.34 | 1.16 | 0.892 | 1.21 | 0.983 | 0.888
42 | CCACGCGUCAAGCAAUCGGUC [Fam1B.1 aminoacylation ribozyme variant] | 0.748 | 0.827 | 0.841 | 1.2 | 0.71 | 0.802
43 | CCACGCUUCAAGCAAACGGUC [Fam1B.1 aminoacylation ribozyme variant] | 0.644 | 0.647 | 0.457 | 0.665 | 0.477 | 0.544
44 | CCACGCUUCAAGCAAUCGGUG [Fam1B.1 aminoacylation ribozyme variant] | 5.52 | 2.49 | 3.73 | 2.41 | 5.09 | 4.43
45 | CCACGGUUCAAGCAAUCGGUC [Fam1B.1 aminoacylation ribozyme variant] | 2.64 | 1.08 | 1.02 | 1.22 | 1.07 | 2.21
46 | CCACGUCAAACAAUCGGUCUG [Fam1A.1 aminoacylation ribozyme variant] | 2.2 | 1.89 | 1.75 | 1.95 | 1.36 | 2.31
47 | CCACGUUUCAAGCAAUCGGUC [Fam1B.1 aminoacylation ribozyme variant] | 77.2 | 2.68 | 2.85 | 3.47 | 3.36 | 37.6
48 | CCACUCUUCAAGCAAGCGGUC [Fam1B.1 aminoacylation ribozyme variant] | 0.629 | 0.909 | 0.806 | 0.97 | 1.09 | 0.585
49 | CCACUCUUCAAGCAAUCGAUC [Fam1B.1 aminoacylation ribozyme variant] | 1.28 | 0.542 | 0.448 | 0.735 | 0.522 | 0.516
50 | CCACUCUUCAAGUAAUCGGUC [Fam1B.1 aminoacylation ribozyme variant] | 4.71 | 0.854 | 0.823 | 1.08 | 0.969 | 3.88
51 | CCACUCUUCACGCAAUCGGUC [Fam1B.1 aminoacylation ribozyme variant] | 0.819 | 1.08 | 1.05 | 1.21 | 1.13 | 0.952
